Measurements as given in patent US20240164355A1 (VANDERBILT UNIVERSITY, published 2024).

T1: CidB (CidB^wPip, wPa_0283), co-expressed with His6-CidA from the full operon in E. coli (Wolbachia pipientis, wPip strain)
T1 construct: also called toxin
T1 chain: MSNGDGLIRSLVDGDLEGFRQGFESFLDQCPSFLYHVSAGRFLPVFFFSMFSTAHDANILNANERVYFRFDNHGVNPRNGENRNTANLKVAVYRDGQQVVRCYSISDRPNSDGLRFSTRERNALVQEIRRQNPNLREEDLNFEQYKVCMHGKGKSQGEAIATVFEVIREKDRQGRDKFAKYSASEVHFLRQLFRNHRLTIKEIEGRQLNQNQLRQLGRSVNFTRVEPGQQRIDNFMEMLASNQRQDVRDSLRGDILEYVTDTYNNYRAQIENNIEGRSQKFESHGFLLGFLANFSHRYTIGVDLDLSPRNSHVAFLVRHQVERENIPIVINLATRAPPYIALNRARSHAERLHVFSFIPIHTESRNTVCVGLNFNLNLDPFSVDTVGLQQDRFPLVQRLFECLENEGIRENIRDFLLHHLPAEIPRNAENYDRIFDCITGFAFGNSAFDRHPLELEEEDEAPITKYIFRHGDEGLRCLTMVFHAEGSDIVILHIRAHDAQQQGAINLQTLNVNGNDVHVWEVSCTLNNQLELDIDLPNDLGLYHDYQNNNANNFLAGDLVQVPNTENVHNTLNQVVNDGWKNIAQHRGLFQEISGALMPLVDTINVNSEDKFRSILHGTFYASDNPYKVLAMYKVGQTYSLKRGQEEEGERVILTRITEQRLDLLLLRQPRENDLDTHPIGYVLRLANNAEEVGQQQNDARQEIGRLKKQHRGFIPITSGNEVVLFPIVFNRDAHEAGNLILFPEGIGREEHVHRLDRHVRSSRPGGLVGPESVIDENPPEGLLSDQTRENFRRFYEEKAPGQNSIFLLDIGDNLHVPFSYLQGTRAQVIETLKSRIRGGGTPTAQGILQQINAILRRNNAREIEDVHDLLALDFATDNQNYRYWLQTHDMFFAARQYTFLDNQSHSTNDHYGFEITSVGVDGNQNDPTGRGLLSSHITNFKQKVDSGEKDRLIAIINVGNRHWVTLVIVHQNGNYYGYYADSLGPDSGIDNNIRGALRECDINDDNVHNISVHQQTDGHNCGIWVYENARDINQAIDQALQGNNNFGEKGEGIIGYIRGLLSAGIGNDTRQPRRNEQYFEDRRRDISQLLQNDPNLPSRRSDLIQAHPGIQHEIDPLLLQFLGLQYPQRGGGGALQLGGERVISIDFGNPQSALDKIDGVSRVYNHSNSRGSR

T2: CinB (CinB^wPip, wPa_0295), co-expressed with His6-CinA from the full operon in E. coli (Wolbachia pipientis, wPip strain)
T2 construct: also called putative DUF1703 nuclease
T2 chain: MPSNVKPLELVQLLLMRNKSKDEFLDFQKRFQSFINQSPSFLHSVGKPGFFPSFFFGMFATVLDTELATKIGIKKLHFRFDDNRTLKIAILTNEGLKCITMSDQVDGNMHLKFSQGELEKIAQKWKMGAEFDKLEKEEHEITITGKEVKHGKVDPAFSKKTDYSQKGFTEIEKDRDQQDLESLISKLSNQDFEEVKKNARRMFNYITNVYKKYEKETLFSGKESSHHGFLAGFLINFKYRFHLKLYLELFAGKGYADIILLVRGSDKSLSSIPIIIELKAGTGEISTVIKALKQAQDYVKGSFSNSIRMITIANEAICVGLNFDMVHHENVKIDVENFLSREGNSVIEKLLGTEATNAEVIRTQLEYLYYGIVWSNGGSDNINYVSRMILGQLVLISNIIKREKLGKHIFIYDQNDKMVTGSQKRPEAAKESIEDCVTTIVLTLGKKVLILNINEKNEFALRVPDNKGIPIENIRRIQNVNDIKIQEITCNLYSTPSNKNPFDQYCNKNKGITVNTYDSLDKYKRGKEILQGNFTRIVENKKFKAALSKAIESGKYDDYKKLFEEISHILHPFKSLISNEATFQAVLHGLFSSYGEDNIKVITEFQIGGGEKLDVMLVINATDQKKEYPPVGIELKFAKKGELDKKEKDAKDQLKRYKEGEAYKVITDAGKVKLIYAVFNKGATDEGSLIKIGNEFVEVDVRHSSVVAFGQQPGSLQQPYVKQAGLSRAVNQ


Legend:
[1] = target: T1, CidB (CidB^wPip, wPa_0283), …; assay: summary of the pulldown experiments of Example 2
[2] = target: T2, CinB (CinB^wPip, wPa_0295), …; assay: summary of the pulldown experiments of Example 2

Binder | binding result [1] | binding result [2]
His6-CidA (CidA^wPip, wPa_0282, N-terminally His6-tagged) (other, also called His6-tagged CidA; antidote) MPTQKELRDTMSKKLQEAIKHPDPAVVAGRKSAIKRWVGVLQDNFMEHIKYFKGDKLKFLHNVFQDEGCWSGVRLDNAALGQRFTEEKIGGIDNPLRKYEMACSYCVVDKIHPLFQKRFESYRNKFPPGAFDGKTETEFGKYVRNSLLDSIKRKGPVFDFWIDRESGELKKYDAVEGFDSAVKFKWSEGVEYFYNHLKEEDKEKKLTEAILALSRVQSVEKDAPILDFCVNKIVDKDTLLQKLSQKDKGVYSLFAELIESCFFDTVHDLVQCWCYKEVSAGGDHSEKIFSQRDYELFLSSLSDTMLKNPELSVQARSLIMEFWECGSLYQYRKAAVNTSNYTVPTSGVFAELIVNWRREDIYKTDEEKEIEKKEILDMMSFAKDCFPEKFELFKKLIIRDLRLCGREGKRVNVDYGLFAEELFSELEKTILPPGPVGDGPCSNLRSRSKAHGSKKTTLPVDDSPQSELGTPSVSGVSSYKKKSVFTLSGNK | binds | 
His6-CinA (CinA^wPip, wPa_0294, His6-tagged) (other) MESGLDHNYNKILDILKGAIKGDDNQVKARKHLRVERWLRAYIQLIEDFDEEKLIFFSDIFSDNSCWDGIKLKNKAVGERLTEEKNKNGKENPLDLADRYYLACKYCLEDKIPGLFEQVFMRFKRSAFEEDGSDDDLRRELLENIEETSPIEAFWSFLIDKQIGKLNEYKSVEGLQKSIQINSNKNWEEGIEFFYNKLHNDSSISSQDKDDLLIEAALSAVKGYKEVDTIEFCLSKMDDEQKKKLLDRDYKENTYYAVLNVLVGQYYFDSFMELSRLCSQIECERYTTFLSSLSDQVLKNPDLSEETKKCMMNVWERIIKLKTQDRGEQSISSIFVDYSVTYTIANLIVDPSRQGVSKEEILGKILKHVKEMSGEEMIKVKDSVLSKIQLFHGGKKLQLGEQVFSKLAQEASKESILREAGDTLPQSSLSTTDTPYNIKSLSHSK |  | binds
